This note sets out measurements from article PMC10658565, “Polymorphic nanobody crystals as long‐acting intravitreal therapy for wet age‐related macular degeneration” (Bioengineering & Translational Medicine, 2023).

B1: mNb‐WT (VHH)
VHH: DVQLVESGGGLVQPGGSLRLSCAASGRTFSSYSMGWFRQAPGKEREFVVAISKGGYKYDAVSLEGRFTISRDNAKNTVYLQINSLRPEDTAVYYCASSRAYGSSRLRLADTYEYWGQGTLVTVSS
notes: also in PDB 8IIU (crystal of the protein without label); The 6xHis-labelled form was used for the ELISA; crystals were grown from protein without label; also called model anti‐VEGF nanobody; model nanobody mNb‐WT
B2: Mutant 4 (Y95F mutation) (VHH)
VHH: DVQLVESGGGLVQPGGSLRLSCAASGRTFSSYSMGWFRQAPGKEREFVVAISKGGYKYDAVSLEGRFTISRDNAKNTVYLQINSLRPEDTAVYFCASSRAYGSSRLRLADTYEYWGQGTLVTVSS
notes: as the chain of m1 with Y95F
B3: Mutant 6 (S8A mutation) (VHH)
VHH: DVQLVEAGGGLVQPGGSLRLSCAASGRTFSSYSMGWFRQAPGKEREFVVAISKGGYKYDAVSLEGRFTISRDNAKNTVYLQINSLRPEDTAVYYCASSRAYGSSRLRLADTYEYWGQGTLVTVSS
notes: as the chain of m1 with S8A
B4: Mutant 7 (Q14N mutation) (VHH)
VHH: DVQLVESGGGLVNPGGSLRLSCAASGRTFSSYSMGWFRQAPGKEREFVVAISKGGYKYDAVSLEGRFTISRDNAKNTVYLQINSLRPEDTAVYYCASSRAYGSSRLRLADTYEYWGQGTLVTVSS
notes: as the chain of m1 with Q14N; also in PDB 8IJS (crystal of the protein without label)
B5: Mutant 3 (K44A/E45A mutation) (VHH)
VHH: DVQLVESGGGLVQPGGSLRLSCAASGRTFSSYSMGWFRQAPGAAREFVVAISKGGYKYDAVSLEGRFTISRDNAKNTVYLQINSLRPEDTAVYYCASSRAYGSSRLRLADTYEYWGQGTLVTVSS
notes: as the chain of m1 with K44A and E45A
B6: Mutant 1 (K44A mutation) (VHH)
VHH: DVQLVESGGGLVQPGGSLRLSCAASGRTFSSYSMGWFRQAPGAEREFVVAISKGGYKYDAVSLEGRFTISRDNAKNTVYLQINSLRPEDTAVYYCASSRAYGSSRLRLADTYEYWGQGTLVTVSS
notes: as the chain of m1 with K44A
B7: Mutant 2 (E45A mutation) (VHH)
VHH: DVQLVESGGGLVQPGGSLRLSCAASGRTFSSYSMGWFRQAPGKAREFVVAISKGGYKYDAVSLEGRFTISRDNAKNTVYLQINSLRPEDTAVYYCASSRAYGSSRLRLADTYEYWGQGTLVTVSS
notes: as the chain of m1 with E45A; also in PDB 8IJZ (crystal of the protein without label)
B8: Mutant 5 (Q118N mutation) (VHH)
VHH: DVQLVESGGGLVQPGGSLRLSCAASGRTFSSYSMGWFRQAPGKEREFVVAISKGGYKYDAVSLEGRFTISRDNAKNTVYLQINSLRPEDTAVYYCASSRAYGSSRLRLADTYEYWGNGTLVTVSS
notes: as the chain of m1 with Q118N

T1 sequence (P15692 whole entry, looked up, change not shown): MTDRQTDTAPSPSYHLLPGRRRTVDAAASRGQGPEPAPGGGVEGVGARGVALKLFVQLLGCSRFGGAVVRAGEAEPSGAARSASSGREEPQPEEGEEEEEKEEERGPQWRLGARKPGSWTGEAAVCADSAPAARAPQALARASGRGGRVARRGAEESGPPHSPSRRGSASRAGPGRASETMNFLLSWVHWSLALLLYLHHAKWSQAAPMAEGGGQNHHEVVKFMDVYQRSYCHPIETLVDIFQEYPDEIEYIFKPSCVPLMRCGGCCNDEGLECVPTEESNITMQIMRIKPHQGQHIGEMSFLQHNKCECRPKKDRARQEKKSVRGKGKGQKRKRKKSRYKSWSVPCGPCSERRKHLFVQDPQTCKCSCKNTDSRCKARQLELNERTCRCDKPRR

This assay has as its target T1, recombinant VEGF‐A165 protein (Homo sapiens (assumed), UniProt P15692-4, strain).
T1 construct: also called vascular endothelial growth factor; source: bought: SinoBiological Co. Ltd. (Cat: HPLC‐11066‐HNAH)
The assay is described as follows: ELISA; VEGF‐A165 coated on high adsorption plates overnight at 4°C; blocked with 5% skim milk; linear gradient of 6xHis-labelled nanobodies, 1 h at 37°C; detected with HRP‐conjugated 6xHis tag antibody, TMB, 450 nm. To be noted: both partners purified. In general terms: In an ELISA, binding on a coated surface is turned into a signal by an enzyme label.
Consider B1, for which the binding result is reported as “binds”.
For B2, the binding result is given as “binds”.
As for B3, the binding result is given as “binds”.
With B4, the binding result was “binds”.
As to B5, the binding result is “binds”.
The result for B6 reads “binds”.
On to B7, for which the binding result was “binds”.
B8: the binding result was “binds”.
